Data published in the Immune Epitope Database (IEDB).

How the values were obtained:
Test in all cases: IEDB peptide-MHC binding, purified MHC/competitive/radioactivity; filed as Kd, often an IC50 or EC50 that approximates it; ≥ and ≤ were set here for values at or beyond the usual limits of such assays
HLA-A*03:01 = molecular target: HLA-A*03:01
HLA-A*11:01 = molecular target: HLA-A*11:01
HLA-A*31:01 = molecular target: HLA-A*31:01
HLA-A*33:01 = molecular target: HLA-A*33:01
HLA-A*68:01 = molecular target: HLA-A*68:01
[1] = source organism: Vaccinia virus WR
[2] = source organism: Dengue virus 3 Martinique/1243/1999
[3] = source organism: Dengue virus 2 Jamaica/1409/1983
[4] = source organism: Vaccinia virus Copenhagen
[5] = source organism: Mammarenavirus brazilense
[6] = source organism: SARS coronavirus Tor2
[7] = source organism: Dengue virus 1 Brazil/97-11/1997
[8] = source organism: Vaccinia virus LC16M8
[9] = source organism: Dengue virus 4 Philippines/H241/1956

Sequence IMVASDVCK has a Kd (HLA-A*03:01; [1]) of 150 nM, a Kd (HLA-A*11:01; [1]) of 369 nM and a Kd (HLA-A*31:01; [1]) of 991 nM. It also gave a Kd (HLA-A*33:01; [1]) of 3480 nM and a Kd (HLA-A*68:01; [1]) of 408 nM.
For ISARALKAY, the Kd (HLA-A*03:01; [1]) was 542 nM, the Kd (HLA-A*11:01; [1]) was 334 nM and the Kd (HLA-A*31:01; [1]) was 9600 nM. For the same sequence, the Kd (HLA-A*33:01; [1]) was 16400 nM and the Kd (HLA-A*68:01; [1]) was 2470 nM.
ISIMIEEVMR was tested, and the Kd (HLA-A*68:01; source organism: Dengue virus 1 Singapore/S275/1990) was 82.3 nM.
ITNITTDSR showed a Kd (HLA-A*68:01; [2]) of 26.3 nM.
ITPDDGLGLR was tested, and the Kd (HLA-A*03:01; [1]) was ≥ 70100 nM, the Kd (HLA-A*11:01; [1]) was 16200 nM and the Kd (HLA-A*31:01; [1]) was 11600 nM. The Kd (HLA-A*33:01; [1]) was 9910 nM and the Kd (HLA-A*68:01; [1]) was 69.2 nM.
ITVDDDGTMR was tested, and the Kd (HLA-A*68:01; [2]) was 77.3 nM.
For ITVNPIVTEK, the Kd (HLA-A*03:01; [3]) was 24.1 nM, the Kd (HLA-A*11:01; [3]) was 69.2 nM and the Kd (HLA-A*68:01; [3]) was 154 nM.
In the case of IVNNQESNK, the Kd (HLA-A*03:01; [4]) is reported as 132 nM, the Kd (HLA-A*11:01; [4]) is reported as 147 nM and the Kd (HLA-A*31:01; [4]) is reported as 1180 nM. For the same sequence, the Kd (HLA-A*33:01; [4]) was ≥ 77700 nM and the Kd (HLA-A*68:01; [4]) was 111 nM.
KCSDHYICLK was tested, and the Kd (HLA-A*03:01; [5]) was 276 nM, the Kd (HLA-A*11:01; [5]) was 1890 nM and the Kd (HLA-A*31:01; [5]) was 482 nM. For the same sequence, the Kd (HLA-A*33:01; [5]) was 8220 nM and the Kd (HLA-A*68:01; [5]) was ≥ 70100 nM.
KFTTSLSLHK gave a Kd (HLA-A*03:01; [6]) of 275 nM, a Kd (HLA-A*11:01; [6]) of 135 nM and a Kd (HLA-A*31:01; [6]) of 239 nM. For the same sequence, the Kd (HLA-A*33:01; [6]) was 8190 nM and the Kd (HLA-A*68:01; [6]) was 302 nM.
In the case of KIVDHIVMY, the Kd (HLA-A*03:01; [1]) is reported as 17.9 nM, the Kd (HLA-A*11:01; [1]) is reported as 92.2 nM and the Kd (HLA-A*31:01; [1]) is reported as 11800 nM. For the same sequence, the Kd (HLA-A*33:01; [1]) was ≥ 24800 nM and the Kd (HLA-A*68:01; [1]) was 7980 nM.
KLITPNYMK gave a Kd (HLA-A*03:01; [1]) of 10.3 nM, a Kd (HLA-A*11:01; [1]) of 5.08 nM and a Kd (HLA-A*31:01; [1]) of 486 nM. The Kd (HLA-A*33:01; [1]) was ≥ 59300 nM and the Kd (HLA-A*68:01; [1]) was 2790 nM.
KSEFNTYKR gave a Kd (HLA-A*31:01; [7]) of 1340 nM.
In the case of KSKNINIEVK, the Kd (HLA-A*03:01; [1]) is reported as 305 nM, the Kd (HLA-A*11:01; [1]) is reported as 568 nM and the Kd (HLA-A*31:01; [1]) is reported as 1070 nM. For the same sequence, the Kd (HLA-A*33:01; [1]) was ≥ 70000 nM and the Kd (HLA-A*68:01; [1]) was 13300 nM.
In the case of KSSSIDVDKR, the Kd (HLA-A*03:01; [1]) is reported as 2630 nM, the Kd (HLA-A*11:01; [1]) is reported as 550 nM and the Kd (HLA-A*31:01; [1]) is reported as 84.4 nM. The Kd (HLA-A*33:01; [1]) was 8180 nM and the Kd (HLA-A*68:01; [1]) was 17 nM.
KTDFKVVKK showed a Kd (HLA-A*03:01; [1]) of 14.8 nM, a Kd (HLA-A*11:01; [1]) of 60.6 nM and a Kd (HLA-A*31:01; [1]) of 71.1 nM. It also gave a Kd (HLA-A*33:01; [1]) of 1210 nM and a Kd (HLA-A*68:01; [1]) of 365 nM.
In the case of LFASADNHPK, the Kd (HLA-A*03:01; [8]) is reported as 399 nM, the Kd (HLA-A*11:01; [8]) is reported as 85.9 nM and the Kd (HLA-A*31:01; [8]) is reported as 9330 nM. The Kd (HLA-A*33:01; [8]) was 9860 nM and the Kd (HLA-A*68:01; [8]) was 264 nM.
Sequence LSRLRYNLCK has a Kd (HLA-A*03:01; [1]) of 92.9 nM, a Kd (HLA-A*11:01; [1]) of 715 nM and a Kd (HLA-A*31:01; [1]) of 206 nM. The Kd (HLA-A*33:01; [1]) was 2640 nM and the Kd (HLA-A*68:01; [1]) was 3510 nM.
LTIKDSSNK was tested, and the Kd (HLA-A*03:01; [1]) was 827 nM, the Kd (HLA-A*11:01; [1]) was 14.9 nM and the Kd (HLA-A*31:01; [1]) was ≥ 34800 nM. The Kd (HLA-A*33:01; [1]) was ≥ 77700 nM and the Kd (HLA-A*68:01; [1]) was 9.14 nM.
LTILDDNLYK showed a Kd (HLA-A*03:01; [4]) of 229 nM, a Kd (HLA-A*11:01; [4]) of 3.38 nM and a Kd (HLA-A*31:01; [4]) of 6840 nM. It also gave a Kd (HLA-A*33:01; [4]) of 17700 nM and a Kd (HLA-A*68:01; [4]) of 19.5 nM.
For LTMKAIEKDR, the Kd (HLA-A*03:01; [1]) was 12100 nM, the Kd (HLA-A*11:01; [1]) was 280 nM and the Kd (HLA-A*31:01; [1]) was 595 nM. The Kd (HLA-A*33:01; [1]) was 6250 nM and the Kd (HLA-A*68:01; [1]) was 65.5 nM.
MGYWIESQK showed a Kd (HLA-A*03:01; [2]) of 12.8 nM and a Kd (HLA-A*68:01; [2]) of 67.2 nM.
With MIIKHIYEQY the Kd (HLA-A*03:01; [1]) was ≥ 70100 nM, the Kd (HLA-A*11:01; [1]) was 5780 nM and the Kd (HLA-A*31:01; [1]) was ≥ 70000 nM. For the same sequence, the Kd (HLA-A*33:01; [1]) was ≥ 70000 nM and the Kd (HLA-A*68:01; [1]) was 140 nM.
In the case of MLAHAEETRK, the Kd (HLA-A*03:01; [6]) is reported as 496 nM, the Kd (HLA-A*11:01; [6]) is reported as 6390 nM and the Kd (HLA-A*31:01; [6]) is reported as 9410 nM. The Kd (HLA-A*33:01; [6]) was ≥ 70000 nM and the Kd (HLA-A*68:01; [6]) was 157 nM.
MLNILNGRKR gave a Kd (HLA-A*31:01; [9]) of 17.3 nM.
With MSLSEQLRK the Kd (HLA-A*03:01; [6]) was 8.24 nM, the Kd (HLA-A*11:01; [6]) was 4.01 nM and the Kd (HLA-A*31:01; [6]) was 181 nM. It also gave a Kd (HLA-A*33:01; [6]) of 4730 nM and a Kd (HLA-A*68:01; [6]) of 169 nM.
With MWTLMYFHRR the Kd (HLA-A*31:01; [3]) was 33.6 nM and the Kd (HLA-A*33:01; [3]) was 29.8 nM.
NATDFWRLY showed a Kd (HLA-A*03:01; [1]) of 44.1 nM, a Kd (HLA-A*11:01; [1]) of 126 nM and a Kd (HLA-A*31:01; [1]) of 477 nM. For the same sequence, the Kd (HLA-A*33:01; [1]) was 526 nM and the Kd (HLA-A*68:01; [1]) was 52.3 nM.
For NFFTELENKK, the Kd (HLA-A*03:01; [1]) was ≥ 61800 nM, the Kd (HLA-A*11:01; [1]) was ≥ 32300 nM and the Kd (HLA-A*31:01; [1]) was ≥ 70000 nM. For the same sequence, the Kd (HLA-A*33:01; [1]) was ≥ 32800 nM and the Kd (HLA-A*68:01; [1]) was 6670 nM.
In the case of NFMVSVSDFR, the Kd (HLA-A*03:01; [1]) is reported as 9960 nM, the Kd (HLA-A*11:01; [1]) is reported as 4030 nM and the Kd (HLA-A*31:01; [1]) is reported as 93.9 nM. It also gave a Kd (HLA-A*33:01; [1]) of 33.1 nM and a Kd (HLA-A*68:01; [1]) of 6.56 nM.
RFWDLVHRER was tested, and the Kd (HLA-A*31:01; [7]) was ≥ 49800 nM and the Kd (HLA-A*33:01; [7]) was 19.7 nM.
Sequence RIMQRGLFGK has a Kd (HLA-A*03:01; [9]) of 5.43 nM, a Kd (HLA-A*11:01; [9]) of 29.5 nM and a Kd (HLA-A*31:01; [9]) of 10.9 nM.
For STPIVVQMTK, the Kd (HLA-A*11:01; [6]) was 14.2 nM.
TFHTMWHVTR gave a Kd (HLA-A*31:01; [3]) of 19.1 nM and a Kd (HLA-A*33:01; [3]) of 7.95 nM.
In the case of TLFGPEREK, the Kd (HLA-A*03:01; [9]) is reported as 85.9 nM.
VFHTMWHVTR showed a Kd (HLA-A*31:01; [2]) of 4.53 nM and a Kd (HLA-A*33:01; [2]) of 135 nM.
